Results from US9617572B2, “Methods of producing 7-carbon chemicals via aromatic compounds” (INVISTA North America S.á r.l., priority 2012, dated 2017).

Legend:
Assay type in all cases: biochemical
[1] = Carboxylate reductase activity assay (pimelate semialdehyde to heptanedial); conditions: purified enzyme enhanced by sfp gene product, 2 mM pimelate semialdehyde, 1 mM ATP, 1 mM NADPH, pH 7.5, room temperature, 20 min, against empty vector control
Method: The N-terminal His-tagged carboxylate reductase of SEQ ID NO 7 (see Example 4 and FIG. 7F) was assayed using pimelate semialdehyde as substrate. The enzyme activity assay was performed in triplicate in a buffer composed of a final concentration of 50 mM HEPES buffer (pH=7.5), 2 mM pimelate semialdehyde, 10 mM MgCl2, 1 mM ATP and 1 mM NADPH. The enzyme activity assay reaction was initiated by adding purified carboxylate reductase and phosphopantetheine transferase or the empty vector control to the assay buffer containing the pimelate semialdehyde and then incubated at room temperature for 20 min. The consumption of NADPH was monitored by absorbance at 340 nm.

[2] = Carboxylate reductase activity assay (N7-acetyl-7-aminoheptanoate to N7-acetyl-7-aminoheptanal); conditions: purified enzyme enhanced by sfp gene product, 2 mM N7-acetyl-7-aminoheptanoate, 1 mM ATP, 1 mM NADPH, pH 7.5, room temperature, 20 min, against empty vector control
Method: The activity of each of the N-terminal His-tagged carboxylate reductases of SEQ ID NOs: 3, 6, and 7 (see Example 4, and FIGS. 7B, 7E, and 7F) for converting N7-acetyl-7-aminoheptanoate to N7-acetyl-7-aminoheptanal was assayed in triplicate in a buffer composed of a final concentration of 50 mM HEPES buffer (pH=7.5), 2 mM N7-acetyl-7-aminoheptanoate, 10 mM MgCl2, 1 mM ATP, and 1 mM NADPH. The assays were initiated by adding purified carboxylate reductase and phosphopantetheine transferase or the empty vector control to the assay buffer containing the N7-acetyl-7-aminoheptanoate then incubated at room temperature for 20 min. The consumption of NADPH was monitored by absorbance at 340 nm.

[3] = Carboxylate reductase activity assay (pimelate to pimelate semialdehyde); conditions: purified enzyme enhanced by sfp gene product, 2 mM pimelate, 1 mM ATP, 1 mM NADPH, pH 7.5, room temperature, 20 min, against empty vector control
Method: A sequence encoding a HIS-tag was added to the genes from Segniliparus rugosus and Segniliparus rotundus that encode the carboxylate reductases of SEQ ID NOs: 4 and 7, respectively (see FIGS. 7C and 7F), such that N-terminal HIS tagged carboxylate reductases could be produced. Each of the modified genes was cloned into a pET Duet expression vector along with a sfp gene encoding a HIS-tagged phosphopantetheine transferase from Bacillus subtilis, both under the T7 promoter. Each expression vector was transformed into a BL21[DE3] E. coli host and the resulting recombinant E. coli strains were cultivated at 37° C. in a 250 mL shake flask culture containing 50 mL LB media and antibiotic selection pressure, with shaking at 230 rpm. Each culture was induced overnight at 37° C. using an auto-induction media.
The pellet from each induced shake flask culture was harvested via centrifugation. Each pellet was resuspended and lysed via sonication, and the cell debris was separated from the supernatant via centrifugation. […]
Enzyme activity assays (i.e., from pimelate to pimelate semialdehyde) were performed in triplicate in a buffer composed of a final concentration of 50 mM HEPES buffer (pH=7.5), 2 mM pimelate, 10 mM MgCl2, 1 mM ATP and 1 mM NADPH. […] The consumption of NADPH was monitored by absorbance at 340 nm.

acceptance of pimelate as substrate (consumption of NADPH, absorbance at 340 nm) [3]: accepted pimelate as substrate
B1: SEQ ID NO 7: Segniliparus rotundus carboxylate reductase, Genbank Accession No. ADG98140.1 (protein, listed as Segniliparus rotundus)
chain: MTQSHTQGPQASAAHSRLARRAAELLATDPQAAATLPDPEVVRQATRPGLRLAERVDAILSGYADRPALGQRSFQTVKDPITGRSSVELLPTFDTITYRELRERATAIASDLAHHPQAPAKPGDFLASIGFISVDYVAIDIAGVFAGLTAVPLQTGATLATLTAITAETAPTLFAASIEHLPTAVDAVLATPSVRRLLVFDYRAGSDEDREAVEAAKRKIADAGSSVLVDVLDEVIARGKSAPKAPLPPATDAGDDSLSLLIYTSGSTGTPKGAMYPERNVAHFWGGVWAAAFDEDAAPPVPAINITFLPLSHVASRLSLMPTLARGGLMHFVAKSDLSTLFEDLKLARPTNLFLVPRVVEMLYQHYQSELDRRGVQDGTREAEAVKDDLRTGLLGGRILTAGFGSAPLSAELAGFIESLLQIHLVDGYGSTEAGPVWRDGYLVKPPVTDYKLIDVPELGYFSTDSPHPRGELAIKTQTILPGYYKRPETTAEVFDEDGFYLTGDVVAQIGPEQFAYVDRRKNVLKLSQGEFVTLAKLEAAYSSSPLVRQLFVYGSSERSYLLAVIVPTPDALKKFGVGEAAKAALGESLQKIARDEGLQSYEVPRDFIIETDPFTVENGLLSDARKSLRPKLKEHYGERLEAMYKELADGQANELRDIRRGVQQRPTLETVRRAAAAMLGASAAEIKPDAHFTDLGGDSLSALTFSNFLHDLFEVDVPVGVIVSAANTLGSVAEHIDAQLAGGRARPTFATVHGKGSTTIKASDLTLDKFIDEQTLEAAKHLPKPADPPRTVLLTGANGWLGRFLALEWLERLAPAGGKLITIVRGKDAAQAKARLDAAYESGDPKLAGHYQDLAATTLEVLAGDFSEPRLGLDEATWNRLADEVDFISHPGALVNHVLPYNQLFGPNVAGVAEIIKLAITTRIKPVTYLSTVAVAAGVEPSALDEDGDIRTVSAERSVDEGYANGYGNSKWGGEVLLREAHDRTGLPVRVFRSDMILAHQKYTGQVNATDQFTRLVQSLLATGLAPKSFYELDAQGNRQRAHYDGIPVDFTAESITTLGGDGLEGYRSYNVFNPHRDGVGLDEFVDWLIEAGHPITRIDDYDQWLSRFETSLRGLPESKRQASVLPLLHAFARPGPAVDGSPFRNTVFRTDVQKAKIGAEHDIPHLGKALVLKYADDIKQLGLL
acceptance of pimelate semialdehyde as substrate, forming heptanedial (consumption of NADPH, absorbance at 340 nm) [1]: accepted pimelate semialdehyde as substrate
acceptance of N7-acetyl-7-aminoheptanoate as substrate (consumption of NADPH, absorbance at 340 nm) [2]: accepted N7-acetyl-7-aminoheptanoate as substrate
